# Assay results: PMC5218534, “Structural and biochemical analyses of the DEAD-box ATPase Sub2 in association with THO or Yra1” (eLife, 2017)
# T1: Sub2 (full-length) (Saccharomyces cerevisiae, UniProt Q07478)
# T1 construct: full-length, expressed in E. coli BL21-CodonPlus(DE3)-RIL with N-terminal GST tag removed by TEV
# T1 sequence (Q07478 1-446): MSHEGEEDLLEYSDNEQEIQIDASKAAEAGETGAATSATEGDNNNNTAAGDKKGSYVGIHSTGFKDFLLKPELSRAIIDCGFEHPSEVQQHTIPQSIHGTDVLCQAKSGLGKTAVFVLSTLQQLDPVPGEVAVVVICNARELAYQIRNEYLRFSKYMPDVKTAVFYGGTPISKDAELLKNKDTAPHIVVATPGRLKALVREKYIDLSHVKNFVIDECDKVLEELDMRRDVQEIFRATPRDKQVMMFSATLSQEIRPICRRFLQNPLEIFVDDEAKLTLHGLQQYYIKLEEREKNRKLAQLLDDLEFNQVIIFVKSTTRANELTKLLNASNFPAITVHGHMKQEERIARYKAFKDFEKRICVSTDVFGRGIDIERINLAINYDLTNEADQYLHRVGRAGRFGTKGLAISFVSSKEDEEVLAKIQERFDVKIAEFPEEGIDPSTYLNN
# T2: DEAD-box ATPase Sub2, full length (S. cerevisiae, UniProt Q07478 1-446)
# T2 sequence (looked up): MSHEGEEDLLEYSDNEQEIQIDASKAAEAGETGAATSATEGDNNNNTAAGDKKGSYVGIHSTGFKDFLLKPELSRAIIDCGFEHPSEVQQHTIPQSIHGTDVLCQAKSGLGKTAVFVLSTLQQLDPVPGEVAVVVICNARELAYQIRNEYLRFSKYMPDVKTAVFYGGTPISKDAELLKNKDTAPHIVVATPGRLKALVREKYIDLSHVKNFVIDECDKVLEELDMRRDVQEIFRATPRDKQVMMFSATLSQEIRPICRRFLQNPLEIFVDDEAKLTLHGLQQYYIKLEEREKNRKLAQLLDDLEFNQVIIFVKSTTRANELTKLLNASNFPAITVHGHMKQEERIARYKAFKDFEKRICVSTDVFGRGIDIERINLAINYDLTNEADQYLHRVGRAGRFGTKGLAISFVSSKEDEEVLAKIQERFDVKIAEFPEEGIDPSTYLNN
# T3: Sub2 (62-446);Yra1-C* (Saccharomyces cerevisiae?;Saccharomyces …, UniProt Q07478;Q12159 62-446;200-226, |)
# T3 sequence 1: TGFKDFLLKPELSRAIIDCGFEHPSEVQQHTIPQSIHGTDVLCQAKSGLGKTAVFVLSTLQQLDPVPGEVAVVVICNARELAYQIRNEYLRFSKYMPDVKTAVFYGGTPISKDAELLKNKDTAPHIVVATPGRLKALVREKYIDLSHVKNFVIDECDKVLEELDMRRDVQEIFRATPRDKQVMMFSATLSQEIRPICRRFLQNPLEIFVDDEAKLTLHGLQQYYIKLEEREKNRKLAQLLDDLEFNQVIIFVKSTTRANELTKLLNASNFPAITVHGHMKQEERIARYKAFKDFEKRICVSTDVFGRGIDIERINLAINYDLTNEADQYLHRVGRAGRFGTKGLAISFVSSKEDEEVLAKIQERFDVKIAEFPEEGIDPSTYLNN
# T3 sequence 2: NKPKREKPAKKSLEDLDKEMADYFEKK
# T4: Sub2 (a.a. 62-446) (S. cerevisiae, UniProt Q07478 62-446)
# T4 construct: source: E. coli BL21-CodonPlus(DE3)-RIL, purified (glutathione sepharose, TEV, mono Q, Superdex 200); not shown: GST, N-terminal, cleaved
# T4 sequence (looked up): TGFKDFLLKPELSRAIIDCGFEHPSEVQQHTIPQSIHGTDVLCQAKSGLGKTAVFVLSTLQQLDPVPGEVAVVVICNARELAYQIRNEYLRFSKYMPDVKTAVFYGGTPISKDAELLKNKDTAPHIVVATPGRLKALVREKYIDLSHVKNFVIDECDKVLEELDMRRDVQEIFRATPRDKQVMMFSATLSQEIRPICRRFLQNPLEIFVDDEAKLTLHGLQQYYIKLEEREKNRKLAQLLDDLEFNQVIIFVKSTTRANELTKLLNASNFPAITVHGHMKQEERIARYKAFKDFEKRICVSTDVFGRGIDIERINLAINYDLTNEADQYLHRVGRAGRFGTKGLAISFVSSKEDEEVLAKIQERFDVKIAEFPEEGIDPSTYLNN
# T5: Yra1-C (UniProt Q12159 185-226)
# T5 chain: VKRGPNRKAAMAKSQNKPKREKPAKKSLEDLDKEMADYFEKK
# T6: Sub2 (UniProt Q07478 1-446)
# T6 sequence: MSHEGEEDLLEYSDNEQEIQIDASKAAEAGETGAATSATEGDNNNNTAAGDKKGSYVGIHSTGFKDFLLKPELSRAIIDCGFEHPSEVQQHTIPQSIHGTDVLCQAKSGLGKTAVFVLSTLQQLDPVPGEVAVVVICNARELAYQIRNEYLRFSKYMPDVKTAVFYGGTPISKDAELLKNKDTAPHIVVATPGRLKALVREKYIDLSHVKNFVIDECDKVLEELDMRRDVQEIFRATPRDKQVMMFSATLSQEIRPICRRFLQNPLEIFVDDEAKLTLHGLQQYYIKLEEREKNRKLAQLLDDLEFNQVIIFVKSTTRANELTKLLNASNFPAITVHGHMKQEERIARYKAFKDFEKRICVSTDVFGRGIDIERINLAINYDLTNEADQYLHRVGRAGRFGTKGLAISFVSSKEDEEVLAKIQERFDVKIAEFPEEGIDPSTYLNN
# T7: Yra1 C-box (UniProt Q12159 208-226)
# T7 chain: AKKSLEDLDKEMADYFEKK
# T8: Sub2;Yra1-C (Saccharomyces cerevisiae?;Saccharomyces …, UniProt Q07478;Q12159 1-446;185-226, |)
# T8 sequence 1: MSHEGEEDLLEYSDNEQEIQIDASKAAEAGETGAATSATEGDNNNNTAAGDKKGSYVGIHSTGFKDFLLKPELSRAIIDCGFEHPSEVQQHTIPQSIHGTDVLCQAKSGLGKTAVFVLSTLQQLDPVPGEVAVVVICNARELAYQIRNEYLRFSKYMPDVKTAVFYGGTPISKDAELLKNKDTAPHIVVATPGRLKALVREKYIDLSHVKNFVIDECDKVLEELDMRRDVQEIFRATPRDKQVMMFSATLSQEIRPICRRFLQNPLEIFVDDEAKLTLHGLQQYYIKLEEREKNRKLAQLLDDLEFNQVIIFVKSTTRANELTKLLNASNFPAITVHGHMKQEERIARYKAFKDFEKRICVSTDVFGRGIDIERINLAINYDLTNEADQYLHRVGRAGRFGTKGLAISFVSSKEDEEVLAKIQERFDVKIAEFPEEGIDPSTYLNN
# T8 sequence 2: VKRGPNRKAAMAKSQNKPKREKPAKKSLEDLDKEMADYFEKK
# Legend:
# Sub2 (full-length) = molecular target: T1, Sub2 (full-length); assay: NADH enzyme-coupled ATPase assay; assay type: biochemical; details: 1 mM ATP; 10 µM poly(U) 20-mer RNA; 2 mM MgCl2, pH 7.0, 37 °C; no THO or Yra1
# [1] = molecular target: T2, DEAD-box ATPase Sub2, full length; assay: cell-based or functional assay
# [2] = molecular target: THO core complex (THO*) (S. cerevisiae | S. bayanus) (UniProt P53552)
# Sub2 (62-446);Yra1-C* = molecular target: T3, Sub2 (62-446);Yra1-C*; assay: X-ray crystallography 2.6 A; ADP-BeF3; EMSA: 20 nM RNA, 20 mM HEPES pH 7.0, 100 mM NaCl, 1 mM TCEP, 2 mM MgCl2, 5% glycerol, 0.5 U/ul SUPERase-In, 1 mM nucleotide as indicated; room temperature, 10 min; 5% native PAGE, 45 mM Tris-borate; details: protein: recombinant;recombinant; tags: N-terminal GST removed by TEV;N-terminal GST removed by TEV; copies: 1;1; single strand
# Sub2 (a.a. 62-446) = molecular target: T4, Sub2 (a.a. 62-446); assay: crystal structure; Sub2 (62-446), Yra1-C* and poly(U) 15-mer RNA mixed 1:1.2:1.2 with 2 mM MgCl2 and ADP•BeF3; sitting drop, 4 °C, 100 mM Bis-Tris pH 5.5, 20% PEG3350, 0.2 M ammonium acetate; 2.6 Å; details: both partners purified
# Yra1-C = molecular target: T5, Yra1-C; assay: EMSA; Yra1-C without Sub2; EMSA: 20 nM RNA, 20 mM HEPES pH 7.0, 100 mM NaCl, 1 mM TCEP, 2 mM MgCl2, 5% glycerol, 0.5 U/ul SUPERase-In, 1 mM nucleotide as indicated; room temperature, 10 min; 5% native PAGE, 45 mM Tris-borate; details: protein: recombinant; tags: N-terminal GST removed by TEV; label: 5' Alexa488; single strand
# Sub2 = molecular target: T6, Sub2; assay: EMSA; 1 mM ATP-gamma-S, 2 mM MgCl2; EMSA: 20 nM RNA, 20 mM HEPES pH 7.0, 100 mM NaCl, 1 mM TCEP, 2 mM MgCl2, 5% glycerol, 0.5 U/ul SUPERase-In, 1 mM nucleotide as indicated; room temperature, 10 min; 5% native PAGE, 45 mM Tris-borate; details: protein: recombinant; tags: N-terminal GST removed by TEV; label: 5' Alexa488; single strand
# Yra1 C-box = molecular target: T7, Yra1 C-box; assay: EMSA; C-box without Sub2; EMSA: 20 nM RNA, 20 mM HEPES pH 7.0, 100 mM NaCl, 1 mM TCEP, 2 mM MgCl2, 5% glycerol, 0.5 U/ul SUPERase-In, 1 mM nucleotide as indicated; room temperature, 10 min; 5% native PAGE, 45 mM Tris-borate; details: label: 5' Alexa488; single strand
# Sub2;Yra1-C = molecular target: T8, Sub2;Yra1-C; assay: EMSA; 1 mM ATP-gamma-S, 2 mM MgCl2; Yra1-C promotes Sub2-RNA binding, trimeric complex; EMSA: 20 nM RNA, 20 mM HEPES pH 7.0, 100 mM NaCl, 1 mM TCEP, 2 mM MgCl2, 5% glycerol, 0.5 U/ul SUPERase-In, 1 mM nucleotide as indicated; room temperature, 10 min; 5% native PAGE, 45 mM Tris-borate; details: protein: recombinant;recombinant; tags: N-terminal GST removed by TEV;N-terminal GST removed by TEV; copies: 1;1; label: 5' Alexa488; single strand
# Sequence of THO core complex (THO*) (S. cerevisiae | S. bayanus) (P53552 whole entry, looked up, one chain of several): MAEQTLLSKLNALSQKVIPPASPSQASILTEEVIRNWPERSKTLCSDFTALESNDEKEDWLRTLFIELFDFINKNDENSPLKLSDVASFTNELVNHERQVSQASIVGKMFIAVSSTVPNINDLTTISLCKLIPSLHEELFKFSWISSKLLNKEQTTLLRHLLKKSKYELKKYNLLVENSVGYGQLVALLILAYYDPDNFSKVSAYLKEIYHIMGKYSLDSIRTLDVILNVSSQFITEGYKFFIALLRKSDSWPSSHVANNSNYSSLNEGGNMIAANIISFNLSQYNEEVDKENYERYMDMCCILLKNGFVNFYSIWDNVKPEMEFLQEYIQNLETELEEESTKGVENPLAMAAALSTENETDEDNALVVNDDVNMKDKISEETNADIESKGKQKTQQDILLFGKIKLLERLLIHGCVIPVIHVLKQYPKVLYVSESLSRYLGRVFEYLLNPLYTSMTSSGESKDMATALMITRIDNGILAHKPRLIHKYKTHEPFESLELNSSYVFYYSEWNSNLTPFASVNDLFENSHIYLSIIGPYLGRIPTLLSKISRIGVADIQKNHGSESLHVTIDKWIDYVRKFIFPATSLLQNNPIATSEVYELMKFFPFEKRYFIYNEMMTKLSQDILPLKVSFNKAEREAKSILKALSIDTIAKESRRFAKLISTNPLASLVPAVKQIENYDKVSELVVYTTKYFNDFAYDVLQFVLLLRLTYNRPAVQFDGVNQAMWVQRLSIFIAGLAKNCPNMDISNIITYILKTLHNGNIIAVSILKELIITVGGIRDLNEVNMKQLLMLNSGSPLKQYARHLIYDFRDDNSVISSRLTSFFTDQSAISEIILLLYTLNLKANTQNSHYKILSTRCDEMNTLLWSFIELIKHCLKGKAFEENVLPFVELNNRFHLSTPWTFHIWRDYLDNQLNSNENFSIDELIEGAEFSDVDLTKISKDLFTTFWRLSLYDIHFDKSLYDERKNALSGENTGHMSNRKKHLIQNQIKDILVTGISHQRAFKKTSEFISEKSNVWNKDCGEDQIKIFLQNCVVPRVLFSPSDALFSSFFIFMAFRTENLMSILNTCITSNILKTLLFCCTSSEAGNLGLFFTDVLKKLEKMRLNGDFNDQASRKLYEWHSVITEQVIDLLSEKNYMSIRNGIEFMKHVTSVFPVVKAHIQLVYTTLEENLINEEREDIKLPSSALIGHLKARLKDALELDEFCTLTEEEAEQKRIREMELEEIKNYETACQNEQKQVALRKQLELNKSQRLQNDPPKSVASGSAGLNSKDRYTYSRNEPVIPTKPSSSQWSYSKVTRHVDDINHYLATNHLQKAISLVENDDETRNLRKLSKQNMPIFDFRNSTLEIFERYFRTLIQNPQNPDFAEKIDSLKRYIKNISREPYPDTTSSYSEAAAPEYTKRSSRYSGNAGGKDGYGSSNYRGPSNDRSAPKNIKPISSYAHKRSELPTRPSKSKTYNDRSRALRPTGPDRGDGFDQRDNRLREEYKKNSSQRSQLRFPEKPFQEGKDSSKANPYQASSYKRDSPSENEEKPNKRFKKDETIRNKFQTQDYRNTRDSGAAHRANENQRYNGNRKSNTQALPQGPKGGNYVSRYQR
molecule,measurement,setting,value
Nc1ncnc2c1ncn2[C@@H]1O[C@H](COP(=O)(O)OP(=O)(O)OP(=O)(O)O)[C@@H](O)[C@H]1O [ATP],NADH enzyme-coupled ATPase assay,Sub2 (full-length),Sub2 ATPase activity (mole of ADP produced per second per mole of Sub2)
"VKRGPNRKAAMAKSQNKPKREKPAKKSLEDLDKEMADYFEKK (domain or fragment, S. cerevisiae, UniProt Q12159 185-226, looked up) [C-terminal fragment of Yra1, Yra1-C (a.a. 185-226)]","stimulation of the Sub2 ATPase activity by Yra1-C (NADH-coupled ATPase assay, 2 μM Sub2, 10 μM Yra1, 10 μM poly(U) RNA, 37 °C)",[1],~2 fold
"DEAD-box ATPase Sub2, full length (enzyme) MSHEGEEDLLEYSDNEQEIQIDASKAAEAGETGAATSATEGDNNNNTAAGDKKGSYVGIHSTGFKDFLLKPELSRAIIDCGFEHPSEVQQHTIPQSIHGTDVLCQAKSGLGKTAVFVLSTLQQLDPVPGEVAVVVICNARELAYQIRNEYLRFSKYMPDVKTAVFYGGTPISKDAELLKNKDTAPHIVVATPGRLKALVREKYIDLSHVKNFVIDECDKVLEELDMRRDVQEIFRATPRDKQVMMFSATLSQEIRPICRRFLQNPLEIFVDDEAKLTLHGLQQYYIKLEEREKNRKLAQLLDDLEFNQVIIFVKSTTRANELTKLLNASNFPAITVHGHMKQEERIARYKAFKDFEKRICVSTDVFGRGIDIERINLAINYDLTNEADQYLHRVGRAGRFGTKGLAISFVSSKEDEEVLAKIQERFDVKIAEFPEEGIDPSTYLNN","stimulation of the Sub2 ATPase activity by THO* (NADH-coupled ATPase assay, 2 μM Sub2, 2 μM THO, 10 μM poly(U) RNA, 37 °C)",[2],3.5 fold
UUUUUUUUUUUUUUU (ssRNA) [poly(U) 15-mer RNA],binding result,Sub2 (62-446);Yra1-C*,binds
"NKPKREKPAKKSLEDLDKEMADYFEKK (domain or fragment, S. cerevisiae, UniProt Q12159 200-226, looked up, source: E. coli BL21-CodonPlus(DE3)-RIL, purified (glutathione sepharose, TEV, mono S, Superdex 200); not shown: GST, N-terminal, cleaved) [truncated Yra1-C (Yra1-C*, a.a. 200-226)]",binding result,Sub2 (a.a. 62-446),binds
UUUUUUUUUUUUUUUUUUUU (ssRNA) [poly(U) 20-mer RNA],binding result,Yra1-C,binds
same,binding result,Sub2,binds
same,binding result,Yra1 C-box,no binding
same,binding result,Sub2;Yra1-C,binds
